From the DeepSol protein solubility set

assay: soluble on expression in E. coli; label from the status in PepcDB or PDB records

Sequence | soluble on expression in E. coli
MTNPWEVSDAEYQKNFAMFGQLTGGQPFMDAVTARNALMRSNLPTQVLSQIWALSDLDKDGRLDIREYSIAMRLALNCLAGIPIPPQLPPSLLVVPARNAPPTWPGSRHGSVDYSQTLPPAIDRRMSQSYIPSAPVSIAGTPSSRHNSISAGSPLNNDRNVFEGRQLENWAIPHHNKLKYSQLFNALDKERLGSLSSQVGRSALGLSGLPTNVLAHIWFLSDVNKDGKLSVDEYAISQYMIEMFKSGFALPKITPLELVRMCGISSRSANNTPELEPGAEPPQKSPAPKTFEDKRQDNLSKGQAELERRRRVLEEEEQRRRAEVEKKEREEEAKKNRERQEKERQAEVERQAELERQRIIEAQREEEEKKRRLEMERRREEDEKMRKVQMEKAKVKQMQVQMPEQKKWNFYNQKQQENERLAQRQQREKTLQFQLQALDEKVIDVEVDIGKAKEAVAEVTGFIERMRSTRDEKVARIKELQETNQKTAIESQELGHQLLQKQSAHKETTQRKSELEALRRKRDAIRKAIEDAALELSTEKEKSYNQTEILKTNKEKYKTDVYSKLVAKREEYRNSFELLVHAQTHARSKIGEFEAKSAPASAAPAPAPAPAPTTTNGFPANFNDAFGEFDKTDASQRFDADFGATSTADPFAQIAQAPAHSKGAVDQSAFNIHDTYKCRALFAFEARSEDELSFEPGDVIIVFQSHAAEPGWRAGQLREKVGWFPEAFVEAIAAVPTPGGDPPIQNMPPNMTPSSSVDQIGVKAARKAEIAAAMGLTEGGAPPASSAPAAAAVISQCIAQFQWRARNEEDLSFAKGDTIEVLEKQEMKWKGRNPAGEIGWFPKSYVKEVGATTSTTTPIVSPSKASAGAPGAAAGAQYDVVPSDVTLQASETAPQQQLYTVIYDFEAVETTDLALHVGDTILVLEKNDEWWKGRCNGREGIFPANYVEISVQQAGDPTPPTQAPTPAAPPTVLCEAKVVVDFVASAPNQLGIKVGEIVKIREKSAAGWWEGELIRNGKPIAGWFPGEYVKVLEEAASPATRATAVYDYEASQPDELGFKTGDVIIVTDKSEAEWWSGHREQDPSKSGLFPSNYVQQQ | not soluble
MGSDKIHHHHHHMNMKVLLVNPVGEWGGAEKIFFLVSQIFQKTGFELYVLLGSRGILYEKLRNLNFNISIMNFPDLSENSIVIAGRRFQLPHHLLKNLRKIKILSKKFWDYLRILKPDIIYLNNLRSLVLYYETVRTYGKPCEAVVIWHEHGYQRSIIRQLILDKIYLKFVDAVICVSKHLANKHLKDVQQKLYVVHNGIPDELNAIEKENVRYEYNNNKVLIIHPAFITYWKGQHLALKAVDLLVKRGVRNFEIWFFGEPRSKQDYKYFKKLKQFVRSKNLEKQVFFKGFSANIIDEMLKADIVISTSVEDDPFPTILLEASMIGKPVVTTDAGGSGEIVKNGETGFVVKKDKRELASALCELIQNKELRDVFSKNARDRFLKEFSILAFEKRFLETLESILRR | not soluble
KKLCGYLSKFGGKGPIRGWKSRWFFYDERKCQLYYSRTAQDANPLDSIDLSSAVFDCKADAEEGIFEIKTPSRVITLKAATKQAMLYWLQQLQMKRWEFHNSPPAP | soluble
MFGLKVKNAEADTAKSNEKLQGAEATGSSTTSGSGQSTQRGGSSGDTKVKALQVAVKKKSGSQGNSGDQGTEQVELESNDLANAPIKRGSNPASPTQGSRLRHHPIQFGIWSIRHPHPLKAVACDRANSQGPPQMIRLDPHSVRCALCL | soluble
MVKLIHTLADHGDDVNCCAFSFSLLATCSLDKTIRLYSLRDFTELPHSPLKFHTYAVHCCCFSPSGHILASCSTDGTTVLWNTENGQMLAVMEQPSGSPVRVCQFSPDSTCLASGAADGTVVLWNAQSYKLYRCGSVKDGSLAACAFSPNGSFFVTGSSCGDLTVWDDKMRCLHSEKAHDLGITCCDFSSQPVSDGEQGLQFFRLASCGQDCQVKIWIVSFTDILARRTEHQLKQFTEDWSEEDVSTWLCAQDLKDLVGIFKMNNIDGKELLNLTKESLADDLKIESLGLRSKVLRKIEELRTKVKSLSSGIPDEFICPITRELMKDPVIASDGYSYEKEAMENWISKKKRTSPMTNLVLPSAVLTPNRTLKMAINRWLETHQK | soluble
SNAMNIQILQEQANTLRFLSADMVQKANSGHPGAPLGLADILSVLSYHLKHNPKNPTWLNRDRLVFSGGHASALLYSFLHLSGYDLSLEDLKNFRQLHSKTPGHPEISTLGVEIATGPLGQGVANAVGFAMAAKKAQNLLGSDLIDHKIYCLCGDGDLQEGISYEACSLAGLHKLDNFILIYDSNNISIEGDVGLAFNENVKMRFEAQGFEVLSINGHDYEEINKALEQAKKSTKPCLIIAKTTIAKGAGELEGSHKSHGAPLGEEVIKKAKEQAGFDPNISFHIPQASKIRFESAVELGDLEEAKWKDKLEKSAKKELLERLLNPDFNKIAYPDFKGKDLATRDSNGEILNVLAKNLEGFLGGSADLGPSNKTELHSMGDFVEGKNIHFGIREHAMAAINNAFARYGIFLPFSATFFIFSEYLKPAARIAALMKIKHFFIFTHDSIGVGEDGPTHQPIEQLSTFRAMPNFLTFRPADGVENVKAWQIALNADIPSAFVLSRQKLKALNEPVFGDVKNGAYLLKESKEAKFTLLASGSEVWLCLESANELEKQGFACNVVSMPCFELFEKQDKAYQERLLKGEVIGVEAAHSNELYKFCHKVYGIESFGESGKDKDVFERFGFSVSKLVNFILSK | soluble
GLNFPTYDGKDRVVSLSEKNFKQVLKKYDLLCLYYHEPVSSDKVTQKQFQLKEIVLELVAQVLEHKAIGFVMVDAKKEAKLAKKLGFDEEGSLYILKGDRTIEFDGEFAADVLVEFLLDLIEDPVEIISSKLEVQAFERIEDYIKLIGFFKSEDSEYYKAFEEAAEHFQPYIKFFATFDKGVAKKLSLKMNEVDFYEPFMDEPIAIPNKPYTEEELVEFVKEHQRPTLRRLRPEEMFETWEDDLNGIHIVAFAEKSDPDGYEFLEILKQVARDNTDNPDLSILWIDPDDFPLLVAYWEKTFKIDLFRPQIGVVNVTDADSVWMEIPDDDDLPTAEELEDWIEDVLSGKINTEDDDEDDDDDDNSDEEDNDDSDDDDDE | soluble
VQSMSDESEKNSASPDAMRVGTRVLVRRQPEAATGVIVEDYAELTDTAGRGHDWAPVHRWAVALDDGRLVFADTEDLTVDIGTVDSE | not soluble
MTITKLAWRDLVPDTDSYQEIFAQPHLIDENDPLFSDTQPRLQFALEQLLHTRASSSFMLAKAPEESEYLNLIANAARTLQSDAGQLVGGHYEVSGHSIRLRHAVSADDNFATLTQVVAADWVEAEQLFGCLRQFNGDITLQPGLVHQANGGILIISLRTLLAQPLLWMRLKNIVNRERFDWVAFDESRPLPVSVPSMPLKLKVILVGERESLADFQEMEPELSEQAIYSEFEDTLQIVDAESVTQWCRWVTFTARHNHLPAPGADAWPILIREAARYTGEQETLPLSPQWILRQCKEVASLCDGDTFSGEQLNLMLQQREWREGFLAERMQDEILQEQILIETEGERIGQINALSVIEFPGHPRAFGEPSRISCVVHIGDGEFTDIERKAELGGNIHAKGMMIMQAFLMSELQLEQQIPFSASLTFEQSYSEVDGDSASMAELCALISALADVPVNQSIAITGSVDQFGRAQPVGGLNEKIEGFFAICQQRELTGKQGVIIPTANVRHLSLHSELVKAVEEGKFTIWAVDDVTDALPLLLNLVWDGEGQTTLMQTIQERIAQASQQEGRHRFPWPLRWLNWFIPN | soluble
MAKVTVILTSYNKPNTVGAAIESVLSQSFQDWELWIMDDASNEETQQVIDSYMLYPNVYYYNSQVKDEERHKSTRYATLINEAISRSTGDYLCYLTDDNYYLPERLQKMVQYLERYPSVDVVYSKQLVRTVDNQLITQAERIRPTKGTIRYAENIVDHCSVMHRRSLAEKVYETYGSYWNDDPICWHNGDAFFWNRLSAFALFYPINEVLDVCLKSPTSFQALNAFLPEYLPSGTLVKGLGADVYLIEDNHRRAITPTMFQQLHYREENVVHIPDPVLFKYKEGPAIDEHIWEQGKLFPNHRLIKASQEPHIYYVENHRKRHILTHKEFRLYKFRASEVVEVSRSFLDSIPTGPPISAHVNNQHPLPEGLLVRCGFKFYLSGNNRLYPIKSRVMKKLNLQMKNAVFLDSRAIGRYEQGETIEWKTNKCQPRFNTSSLEHHHHHH | not soluble
MGSDKIHHHHHHMVKMRALLSGYYGKGNGGDEALLATLLQMLPSHVTPVVLSGNPEETRDRYNVETYDRMAPLAVLQALRSSDALIWGGGSIIQDVTSTISPFYYGGMMALAQKMGLKTVAWAQGIGPLVRPQTRWLARQTFGNCTKVSVRDRASAALLSDWQIPCIIAPDPVWALESKPVPGLWDLPAPRVAVTLRSHPQLTETRLANLTRALVDFQKATQAFILLLPFQKSEDLSIAEAIQPHLKDVSQILCLEDPQLLKGVFRGVEMAIGMRLHSLIMAAAEGCRCFALSYDPKVNRLMEDLEMPGWDLASLPNDPNLISLTWMEHYANGDPLSPDQIQSLVDRALIHRELLSQAFI | not soluble
MSLQFEGDTITYVGTGRPASDEIIDATGKVVMPGFINTHAHVGMSASKGLFDDVDLERFLDMTFKYDSQRTEEGIFNSARLGMYEMINSGITSFVDLYYSENVIARAAEQVGIRAFLSWVTLDREFTTQKGDPLDNAENFIRSHQNMRFVKPSVGVQGIYVASDETYQRAKEIAERYDTIMHMHLSETRKEVYDSVKKIGERPIEHLDKIGVLSSRVIAAHCVWATYHEAKLLGKNGVNVSWNAVSNFKLATGGVPPVPEMLDAGVNITIGTDSNGSNNSLNFFEAMKFSALTVKNARWDASIIKSQQILDFATIDAAKALRLNAGSIEVGKKADIVILDARRPELIPTDKNNVVNNIVYSTNPASVDSVIIDGVFRKKGGRLIGFDEGGVASANVFVEGHHHHHH | not soluble
MAHHHHHHMNGEVSVERKFSPSQPGYGSEGCRQSMGTTTNNGARRFSATELGRTVGMPYSFDTMRYLKDVMRRREDIHTMRVMPKTHLLAQLVLLEQSGREMLIHQERFCRQQIAHKRDDERSKREEQRLQQKNRDRLEEMKRKQVEELAALKEGVTSFQRQIDAEVKEKLRIVCMLQPRMNVAAAVLAEVKNEASPFLLLPELMEEEKRVAKALKADSRYSKSSADSGAVPHWMRTCVAGSFNVAAILQDAPYRATVDDAVKVTNAFLRKVVVVRDVNDRSVVGWVHVRAGSDPATLATELVRLPAPEELPDQGNIGVVWPKEDFLELSRRAKANNNVETQQLLQSVLGISSASLHCVGLTTHEFSKKEVDTIGSLASV | not soluble
MGSDKIHHHHHHMPATFAHCLLAREAMERFGKSKLFPGVLKTKNHFVVMGATGPDYPYLTDVMKYGVLHIGHNWANRMHYENIDGFILEGIKKLSSMNKTSEEFKNCLAWFSGYVSHVVADSYLHPVVNSTVHGIYLFTNEKHGRCELVQDIYIFKKMTDTDICAAAARDRNSFGYLSILDDCSDPQDLDKIHPHIRVFWSELLKAAHPYASDYFGDLNLDEWHKNYKGRVDFAADSQSIFRHVLDIANAPRYVPWTASSISKEERSKYIDNVETPRGTKQSYDTLFSLVADQIAATWNALFPYIKNGQVPPATLVKDWNLDTGVDESKIDFWKEA | not soluble
MKLHEHQAKEIFAKYGIPVPEGKVAFSLKEAKEVAEELGEFPLVVKAQIHCGGRGKAGGVKIVKDMDELEKAVESLLGKVLKTFQCPDGKPVNRVLIEKATNIDKEYYLAITLDRSKSKPVIMASAAGGMEIEEIVKENPEAIIIETIDPELGLMPYQARELAFKLNLPVKEFASIALKLYQIYSDLDASLVEINPLVLTKEGNLIALDAKLDIDDNALFRHKDLEEMEDETQLPQLEVEAKKYGLNYIKLNGNIGCMVNGAGLAMATMDIIKLAGGEPANFLDVGGGANVEQIANAFRILMADPDVKAVFINIFGGILRVDRLAQGLIEASKMVELRVPIVARLEGTNVEEGKRMLQESGLNFIIAEDMWDGAKKAVEIANKQS | soluble
